{"source": "paper PMC6868385", "target": "GFP-tagged BLM (Bloom helicase) (human) (UniProt P54132)", "experiment": "single-molecule fluorescence intensity", "data": [{"substance": "GFP-tagged BLM (Bloom helicase), P54132 1-1417 (enzyme; other documents disagree on this pair)", "values": [{"measurement": "stoichiometry N (molecules of GFP–BLM per complex)", "value": 3.1}]}]}
